Molecular target: T1, low-density lipoprotein receptor-related protein 1 (LRP1) (UniProt Q07954 20-4544)
T1 construct: low-density lipoprotein receptor-related protein 1 (LRP1), full length, purified from placenta; also called full-length LRP1; purified LRP1
Experiment: SPR; Biacore 3000; full-length LRP1 amine-coupled to a CM5 chip; sFRP-5 (1.6-100 nmol/l) flowed over at 20 ul/min, 25°C, in HBS-P (0.01 M HEPES pH 7.4, 0.15 M NaCl, 0.005% P20) with 1 mM CaCl2; Req from a pseudo-first order fit with a nonspecific component, plotted against concentration and fitted to a single class of sites
Conditions: both partners purified

T1 sequence (Q07954 20-4544): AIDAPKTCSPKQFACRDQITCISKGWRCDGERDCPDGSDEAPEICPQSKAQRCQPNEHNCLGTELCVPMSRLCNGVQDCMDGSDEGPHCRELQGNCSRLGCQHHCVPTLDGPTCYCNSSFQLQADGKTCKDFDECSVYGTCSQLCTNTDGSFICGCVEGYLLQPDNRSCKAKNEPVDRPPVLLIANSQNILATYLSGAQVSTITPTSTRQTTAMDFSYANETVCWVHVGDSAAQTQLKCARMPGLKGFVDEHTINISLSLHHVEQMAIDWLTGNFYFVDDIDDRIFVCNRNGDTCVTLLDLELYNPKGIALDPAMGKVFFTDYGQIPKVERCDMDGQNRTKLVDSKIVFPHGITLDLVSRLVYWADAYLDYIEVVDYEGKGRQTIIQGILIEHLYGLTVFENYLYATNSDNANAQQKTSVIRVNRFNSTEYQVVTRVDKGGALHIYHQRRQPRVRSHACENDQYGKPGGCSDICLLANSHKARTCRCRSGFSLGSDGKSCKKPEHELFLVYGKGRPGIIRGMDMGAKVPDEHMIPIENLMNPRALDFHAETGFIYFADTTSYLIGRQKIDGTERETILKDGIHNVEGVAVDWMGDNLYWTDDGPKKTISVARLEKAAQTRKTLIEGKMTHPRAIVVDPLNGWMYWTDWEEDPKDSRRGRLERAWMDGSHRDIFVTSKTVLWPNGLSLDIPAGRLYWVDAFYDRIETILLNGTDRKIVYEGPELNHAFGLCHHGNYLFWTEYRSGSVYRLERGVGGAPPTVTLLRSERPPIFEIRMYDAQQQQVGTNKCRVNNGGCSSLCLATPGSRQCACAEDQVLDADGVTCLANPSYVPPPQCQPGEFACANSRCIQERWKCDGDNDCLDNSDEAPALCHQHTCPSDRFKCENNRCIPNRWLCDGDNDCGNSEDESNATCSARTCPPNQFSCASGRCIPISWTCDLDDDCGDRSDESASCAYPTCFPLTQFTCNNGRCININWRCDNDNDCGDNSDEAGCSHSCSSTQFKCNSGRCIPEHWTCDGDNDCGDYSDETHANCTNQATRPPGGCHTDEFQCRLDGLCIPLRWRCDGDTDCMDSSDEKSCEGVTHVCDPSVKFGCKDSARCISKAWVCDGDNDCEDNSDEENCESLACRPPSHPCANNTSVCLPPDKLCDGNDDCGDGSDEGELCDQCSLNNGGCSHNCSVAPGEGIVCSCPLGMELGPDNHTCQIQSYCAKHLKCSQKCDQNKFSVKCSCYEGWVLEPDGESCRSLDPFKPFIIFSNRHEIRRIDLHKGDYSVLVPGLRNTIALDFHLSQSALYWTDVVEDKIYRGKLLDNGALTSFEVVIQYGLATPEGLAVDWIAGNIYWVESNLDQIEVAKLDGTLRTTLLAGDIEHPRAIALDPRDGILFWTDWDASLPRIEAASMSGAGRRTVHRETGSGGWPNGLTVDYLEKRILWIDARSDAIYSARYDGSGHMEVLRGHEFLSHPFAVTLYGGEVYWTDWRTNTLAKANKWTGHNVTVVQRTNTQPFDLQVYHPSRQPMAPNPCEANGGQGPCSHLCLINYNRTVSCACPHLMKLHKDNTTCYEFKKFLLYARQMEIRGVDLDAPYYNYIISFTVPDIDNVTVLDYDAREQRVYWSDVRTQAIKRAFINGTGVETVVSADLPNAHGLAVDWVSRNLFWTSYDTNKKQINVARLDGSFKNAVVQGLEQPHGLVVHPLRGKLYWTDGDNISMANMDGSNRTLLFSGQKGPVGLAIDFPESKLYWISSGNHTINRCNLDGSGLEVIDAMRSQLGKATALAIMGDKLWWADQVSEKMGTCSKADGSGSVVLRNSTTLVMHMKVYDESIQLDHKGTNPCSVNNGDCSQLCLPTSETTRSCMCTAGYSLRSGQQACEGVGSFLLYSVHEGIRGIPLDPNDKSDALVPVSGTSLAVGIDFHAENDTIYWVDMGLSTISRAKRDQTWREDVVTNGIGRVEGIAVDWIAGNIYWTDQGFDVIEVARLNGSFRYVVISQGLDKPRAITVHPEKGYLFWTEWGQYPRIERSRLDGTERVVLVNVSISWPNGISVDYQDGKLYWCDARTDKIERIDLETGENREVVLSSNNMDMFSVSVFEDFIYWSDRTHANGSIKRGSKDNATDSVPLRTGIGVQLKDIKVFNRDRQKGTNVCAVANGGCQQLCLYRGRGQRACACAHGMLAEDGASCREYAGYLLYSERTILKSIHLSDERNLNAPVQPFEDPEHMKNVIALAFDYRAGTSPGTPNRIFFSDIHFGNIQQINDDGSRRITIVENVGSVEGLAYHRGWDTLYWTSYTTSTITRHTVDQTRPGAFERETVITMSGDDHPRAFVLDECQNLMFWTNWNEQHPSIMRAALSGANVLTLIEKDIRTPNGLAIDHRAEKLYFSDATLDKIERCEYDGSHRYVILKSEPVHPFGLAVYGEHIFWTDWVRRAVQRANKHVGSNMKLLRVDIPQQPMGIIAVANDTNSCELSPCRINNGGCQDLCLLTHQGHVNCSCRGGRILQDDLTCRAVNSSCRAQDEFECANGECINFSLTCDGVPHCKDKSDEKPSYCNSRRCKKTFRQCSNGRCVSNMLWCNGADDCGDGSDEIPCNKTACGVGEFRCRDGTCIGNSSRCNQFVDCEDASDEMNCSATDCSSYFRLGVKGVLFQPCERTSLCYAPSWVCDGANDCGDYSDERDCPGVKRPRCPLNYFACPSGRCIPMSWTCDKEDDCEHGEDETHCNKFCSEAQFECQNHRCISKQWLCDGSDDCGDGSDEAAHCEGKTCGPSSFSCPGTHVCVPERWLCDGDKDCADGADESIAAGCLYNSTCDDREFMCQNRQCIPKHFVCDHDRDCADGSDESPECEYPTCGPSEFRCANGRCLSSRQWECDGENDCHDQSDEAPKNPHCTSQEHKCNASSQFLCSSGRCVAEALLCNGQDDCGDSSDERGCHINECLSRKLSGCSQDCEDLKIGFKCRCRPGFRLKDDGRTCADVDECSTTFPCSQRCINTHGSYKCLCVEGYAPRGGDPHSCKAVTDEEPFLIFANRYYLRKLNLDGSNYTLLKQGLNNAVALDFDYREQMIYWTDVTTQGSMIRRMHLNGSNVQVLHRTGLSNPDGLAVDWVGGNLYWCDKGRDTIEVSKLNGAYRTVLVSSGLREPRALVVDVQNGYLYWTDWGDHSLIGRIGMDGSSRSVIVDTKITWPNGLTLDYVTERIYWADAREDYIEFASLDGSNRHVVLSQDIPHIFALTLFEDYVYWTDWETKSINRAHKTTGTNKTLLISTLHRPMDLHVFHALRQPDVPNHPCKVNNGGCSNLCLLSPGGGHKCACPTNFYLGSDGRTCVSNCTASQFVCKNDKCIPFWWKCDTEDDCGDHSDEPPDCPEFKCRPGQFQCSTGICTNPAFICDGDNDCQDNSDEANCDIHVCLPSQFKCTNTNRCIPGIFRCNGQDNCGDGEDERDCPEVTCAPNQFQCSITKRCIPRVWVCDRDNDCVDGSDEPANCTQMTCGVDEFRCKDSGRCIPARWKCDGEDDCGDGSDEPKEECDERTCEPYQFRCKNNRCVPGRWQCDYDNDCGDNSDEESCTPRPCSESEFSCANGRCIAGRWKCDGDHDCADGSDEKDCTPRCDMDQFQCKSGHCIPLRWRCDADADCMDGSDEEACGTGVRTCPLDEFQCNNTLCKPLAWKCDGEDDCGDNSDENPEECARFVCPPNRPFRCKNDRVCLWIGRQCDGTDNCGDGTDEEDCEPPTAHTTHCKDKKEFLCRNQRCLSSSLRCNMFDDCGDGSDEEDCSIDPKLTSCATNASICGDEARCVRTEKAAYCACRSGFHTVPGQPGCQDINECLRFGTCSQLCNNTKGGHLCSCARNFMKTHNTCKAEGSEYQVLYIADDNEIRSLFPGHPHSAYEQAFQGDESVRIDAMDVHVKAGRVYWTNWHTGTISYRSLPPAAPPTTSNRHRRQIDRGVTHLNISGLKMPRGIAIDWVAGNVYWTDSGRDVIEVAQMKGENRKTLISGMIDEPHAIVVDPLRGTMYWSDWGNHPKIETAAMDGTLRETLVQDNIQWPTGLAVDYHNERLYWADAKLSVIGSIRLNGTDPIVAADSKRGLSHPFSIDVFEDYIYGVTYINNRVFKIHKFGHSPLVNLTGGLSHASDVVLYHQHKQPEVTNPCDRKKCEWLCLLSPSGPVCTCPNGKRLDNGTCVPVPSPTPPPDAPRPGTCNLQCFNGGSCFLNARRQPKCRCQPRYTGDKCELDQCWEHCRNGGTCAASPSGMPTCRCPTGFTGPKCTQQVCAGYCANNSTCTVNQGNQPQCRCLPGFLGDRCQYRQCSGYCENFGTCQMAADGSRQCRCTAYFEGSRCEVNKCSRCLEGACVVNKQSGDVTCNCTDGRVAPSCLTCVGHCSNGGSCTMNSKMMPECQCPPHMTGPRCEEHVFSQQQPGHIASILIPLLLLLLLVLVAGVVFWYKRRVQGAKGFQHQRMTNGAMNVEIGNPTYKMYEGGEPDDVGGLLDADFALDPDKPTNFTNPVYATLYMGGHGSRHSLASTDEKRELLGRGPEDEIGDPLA

Kd: 32 nM
B1: secreted frizzled-related protein 5 (sFRP-5) (ligand, UniProt Q5T4F7 30-317, looked up)
chain: EEYDYYGWQAEPLHGRSYSKPPQCLDIPADLPLCHTVGYKRMRLPNLLEHESLAEVKQQASSWLPLLAKRCHSDTQVFLCSLFAPVCLDRPIYPCRSLCEAVRAGCAPLMEAYGFPWPEMLHCHKFPLDNDLCIAVQFGHLPATAPPVTKICAQCEMEHSADGLMEQMCSSDFVVKMRIKEIKIENGDRKLIGAQKKKKLLKPGPLKRKDTKRLVLHMKNGAGCPCPQLDSLAGSFLVMGRKVDGQLLLMAVYRWDKKNKEMKFAVKFMFSYPCSLYYPFFYGAAEPH
notes: secreted frizzled-related protein 5 (sFRP-5), commercial recombinant protein; source: bought: R&D Systems 6266-SF-050

Source: PMC6247401, “Macrophage LRP1 Promotes Diet-Induced Hepatic Inflammation and Metabolic Dysfunction by Modulating Wnt Signaling” (Mediators of Inflammation, 2018)
